Experimental data: publication PMC2615626

Target: Sulfolobus solfataricus 50S ribosomal subunit (S. solfataricus (endogenous in S. solfataricus cells)) (UniProt P55858)
Assay: co-sedimentation

Sequence of UniProt P55858 (P55858 whole entry, looked up, tested part not stated): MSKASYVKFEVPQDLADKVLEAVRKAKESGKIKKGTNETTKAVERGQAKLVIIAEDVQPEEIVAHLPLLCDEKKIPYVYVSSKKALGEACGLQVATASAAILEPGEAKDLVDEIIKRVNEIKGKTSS

recombinant Sulfolobus solfataricus aIF6, His-tagged (natural protein)
stoichiometry N: 1 aIF6 per 50S
